# Experimental data from patent US20050282743A1, “Molecular interactions in cells” (Arbor Vita Corporation, priority 2001, published 2005).
# Ends that are not written are not given here. * marks the point of attachment. Biotin = O=C1N[C@H]2[C@H](CS[C@H]2CCCCC(=O)*)N1
# Legend:
# Assay in all cases: G' assay (10 uM PL peptide), results of TABLE 7 and TABLE 12
# Assay type in all cases: binding
# [1] = target: T1, PDZ protein (GST-PDZ fusion) (Homo sapiens, UniProt Q02410)
# T1 construct: made in house; host or cells: E. coli (DH5alpha, BL21 or JM109)
# T1 sequence (Q02410 1-837): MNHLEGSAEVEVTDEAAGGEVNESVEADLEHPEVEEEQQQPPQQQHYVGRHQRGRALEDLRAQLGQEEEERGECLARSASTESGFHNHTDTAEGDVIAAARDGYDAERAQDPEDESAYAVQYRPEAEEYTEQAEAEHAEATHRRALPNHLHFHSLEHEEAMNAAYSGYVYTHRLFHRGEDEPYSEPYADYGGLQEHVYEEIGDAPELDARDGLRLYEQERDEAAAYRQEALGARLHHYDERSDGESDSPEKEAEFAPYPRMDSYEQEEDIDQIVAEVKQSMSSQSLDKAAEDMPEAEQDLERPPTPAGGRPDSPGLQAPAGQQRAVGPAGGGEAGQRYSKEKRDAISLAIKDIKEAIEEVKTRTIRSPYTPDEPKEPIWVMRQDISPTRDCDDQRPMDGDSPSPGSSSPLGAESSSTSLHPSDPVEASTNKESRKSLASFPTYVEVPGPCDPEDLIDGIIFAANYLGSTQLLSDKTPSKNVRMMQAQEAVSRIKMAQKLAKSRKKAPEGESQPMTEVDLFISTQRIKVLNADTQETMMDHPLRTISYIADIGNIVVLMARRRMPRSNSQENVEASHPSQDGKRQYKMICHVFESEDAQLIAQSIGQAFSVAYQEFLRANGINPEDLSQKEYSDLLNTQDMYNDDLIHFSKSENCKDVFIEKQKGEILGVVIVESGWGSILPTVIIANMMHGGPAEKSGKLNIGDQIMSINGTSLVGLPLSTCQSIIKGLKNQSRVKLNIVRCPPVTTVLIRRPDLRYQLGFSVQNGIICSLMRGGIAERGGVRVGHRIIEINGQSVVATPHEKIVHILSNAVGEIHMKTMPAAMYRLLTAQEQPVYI
# Excerpt: (§1) Each page of TABLE 7 and 12 includes seven columns. The columns in each table are numbered from left to right such that the left-most column in each table is column 1 and the right-most column in each table is column 7. Thus, the first column in each table is labeled “AVC ID”; this column simply lists an internal reference number used to refer to the carboxyl-terminal amino acids of the PL proteins listed in the second column. […] All PL peptides were biotinylated at the amino-terminus and the sequences of these PL peptides are presented in TABLE 8 (see end of specification).
# (§2) This column provides the gene name for the PDZ portion of the GST-PDZ fusion that interacts with the PDZ-ligand to the left. For PDZ domain-containing proteins with multiple domains, the domain number is listed to the right of the PDZ (i.e., in column 5 labeled “PDZ Domain”), and indicates the PDZ domain number when numbered from the amino-terminus to the carboxy-terminus.
# (§3) The third column labeled “Peptide Optimal Concentration” in the tables is a number reflective of the binding interaction between the PL protein and PDZ protein. […] The column labeled “Protein Optimal Concentration” refers to the protein concentration used to assay PL interaction (in ug/ml); a ‘0’ is indicative of 5 ug/ml protein concentration; any other value represents the concentration (in ug/ml) used to determine the dissociation constant for a given interaction.
# (§4) Finally, the seventh column labeled “Classification” is another measure of the level of binding. In particular, it provides an absorbance value at 450 nm which indicates the amount of PL peptide bound to the PDZ protein. The following numerical values have the following meanings: ‘1’—A450 nm 0-1; ‘2’—A450 nm 1-2; ‘3’—A450 nm 2-3; ‘4’—A450 nm 3-4; ‘5’—A450 nm of 4 more than 2× repeated; ‘0’—A450 nm 0, i.e., not found to interact. Thus, higher numbers indicate stronger interactions.
# (§5) For convenience, the assay conditions described in this section are referred to as the “G′ assay” and the “G″ assay,” with the specific conditions described in the preceding section on G assays being referred to as the “G^0 assay.” The “G′ assay” is identical to the “G^0 assay” except at step (2) the peptide concentration is 10 uM instead of 20 uM.
# [2] = test system: PDZ protein (GST-PDZ fusion)
# Excerpt: as §1, §2, §3, §4, §5
# [3] = target: T2, PDZ protein (GST-PDZ fusion) (Homo sapiens, UniProt Q6P0Q8)
# T2 construct: made in house; host or cells: E. coli (DH5alpha, BL21 or JM109)
# Excerpt: as §1, §2, §3, §4, §5
# [4] = target: T3, PDZ protein (GST-PDZ fusion) (Homo sapiens, UniProt Q5TCQ9); settings: PDZ KIAA1634, PDZ Domain 1
# T3 construct: made in house; host or cells: E. coli (DH5alpha, BL21 or JM109)
# T3 sequence (Q5TCQ9 1-1481): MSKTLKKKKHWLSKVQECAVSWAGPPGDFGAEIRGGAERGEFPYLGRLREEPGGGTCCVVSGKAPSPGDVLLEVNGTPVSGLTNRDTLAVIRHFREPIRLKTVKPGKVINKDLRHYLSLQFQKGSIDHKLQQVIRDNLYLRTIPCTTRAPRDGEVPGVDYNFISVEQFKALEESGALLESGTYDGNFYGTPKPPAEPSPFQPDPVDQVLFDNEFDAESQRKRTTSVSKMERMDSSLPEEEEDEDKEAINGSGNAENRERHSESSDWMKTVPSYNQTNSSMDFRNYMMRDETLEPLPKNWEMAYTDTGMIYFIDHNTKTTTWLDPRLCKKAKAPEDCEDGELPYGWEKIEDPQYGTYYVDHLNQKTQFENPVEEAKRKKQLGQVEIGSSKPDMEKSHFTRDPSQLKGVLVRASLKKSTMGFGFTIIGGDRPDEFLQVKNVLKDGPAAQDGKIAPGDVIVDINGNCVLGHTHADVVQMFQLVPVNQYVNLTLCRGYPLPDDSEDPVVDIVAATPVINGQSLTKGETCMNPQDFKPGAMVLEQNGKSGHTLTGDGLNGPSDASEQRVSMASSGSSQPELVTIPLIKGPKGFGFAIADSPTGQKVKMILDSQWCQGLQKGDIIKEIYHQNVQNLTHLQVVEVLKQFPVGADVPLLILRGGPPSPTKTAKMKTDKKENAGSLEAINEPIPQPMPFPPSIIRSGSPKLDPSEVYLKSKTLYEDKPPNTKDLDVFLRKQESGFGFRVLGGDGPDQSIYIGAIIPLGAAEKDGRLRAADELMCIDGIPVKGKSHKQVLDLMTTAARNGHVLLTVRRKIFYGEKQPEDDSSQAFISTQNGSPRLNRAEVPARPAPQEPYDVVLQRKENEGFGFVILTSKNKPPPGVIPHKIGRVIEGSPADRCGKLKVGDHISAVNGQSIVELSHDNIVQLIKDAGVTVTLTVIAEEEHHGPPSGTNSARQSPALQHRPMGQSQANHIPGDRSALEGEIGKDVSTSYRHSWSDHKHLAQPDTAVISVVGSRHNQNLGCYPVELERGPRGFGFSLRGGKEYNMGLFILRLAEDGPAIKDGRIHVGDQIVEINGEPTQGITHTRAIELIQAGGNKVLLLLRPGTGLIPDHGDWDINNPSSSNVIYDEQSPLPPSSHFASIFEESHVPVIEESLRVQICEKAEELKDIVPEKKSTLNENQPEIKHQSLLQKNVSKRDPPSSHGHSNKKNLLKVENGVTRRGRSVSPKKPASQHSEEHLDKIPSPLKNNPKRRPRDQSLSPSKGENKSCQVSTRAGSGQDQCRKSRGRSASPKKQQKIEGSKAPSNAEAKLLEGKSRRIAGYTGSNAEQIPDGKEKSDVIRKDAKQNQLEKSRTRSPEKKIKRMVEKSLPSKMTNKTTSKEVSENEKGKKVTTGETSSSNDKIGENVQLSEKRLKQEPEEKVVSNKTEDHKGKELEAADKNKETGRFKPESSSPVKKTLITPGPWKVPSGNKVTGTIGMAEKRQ
# Excerpt: as §1, §2, §3, §4, §5
# [5] = target: T4, PDZ protein (GST-PDZ fusion) (Homo sapiens, UniProt Q12923); settings: PDZ PTPL-1, PDZ Domain 4
# T4 construct: made in house; host or cells: E. coli (DH5alpha, BL21 or JM109)
# T4 sequence (Q12923 whole entry, the tested form may be a part): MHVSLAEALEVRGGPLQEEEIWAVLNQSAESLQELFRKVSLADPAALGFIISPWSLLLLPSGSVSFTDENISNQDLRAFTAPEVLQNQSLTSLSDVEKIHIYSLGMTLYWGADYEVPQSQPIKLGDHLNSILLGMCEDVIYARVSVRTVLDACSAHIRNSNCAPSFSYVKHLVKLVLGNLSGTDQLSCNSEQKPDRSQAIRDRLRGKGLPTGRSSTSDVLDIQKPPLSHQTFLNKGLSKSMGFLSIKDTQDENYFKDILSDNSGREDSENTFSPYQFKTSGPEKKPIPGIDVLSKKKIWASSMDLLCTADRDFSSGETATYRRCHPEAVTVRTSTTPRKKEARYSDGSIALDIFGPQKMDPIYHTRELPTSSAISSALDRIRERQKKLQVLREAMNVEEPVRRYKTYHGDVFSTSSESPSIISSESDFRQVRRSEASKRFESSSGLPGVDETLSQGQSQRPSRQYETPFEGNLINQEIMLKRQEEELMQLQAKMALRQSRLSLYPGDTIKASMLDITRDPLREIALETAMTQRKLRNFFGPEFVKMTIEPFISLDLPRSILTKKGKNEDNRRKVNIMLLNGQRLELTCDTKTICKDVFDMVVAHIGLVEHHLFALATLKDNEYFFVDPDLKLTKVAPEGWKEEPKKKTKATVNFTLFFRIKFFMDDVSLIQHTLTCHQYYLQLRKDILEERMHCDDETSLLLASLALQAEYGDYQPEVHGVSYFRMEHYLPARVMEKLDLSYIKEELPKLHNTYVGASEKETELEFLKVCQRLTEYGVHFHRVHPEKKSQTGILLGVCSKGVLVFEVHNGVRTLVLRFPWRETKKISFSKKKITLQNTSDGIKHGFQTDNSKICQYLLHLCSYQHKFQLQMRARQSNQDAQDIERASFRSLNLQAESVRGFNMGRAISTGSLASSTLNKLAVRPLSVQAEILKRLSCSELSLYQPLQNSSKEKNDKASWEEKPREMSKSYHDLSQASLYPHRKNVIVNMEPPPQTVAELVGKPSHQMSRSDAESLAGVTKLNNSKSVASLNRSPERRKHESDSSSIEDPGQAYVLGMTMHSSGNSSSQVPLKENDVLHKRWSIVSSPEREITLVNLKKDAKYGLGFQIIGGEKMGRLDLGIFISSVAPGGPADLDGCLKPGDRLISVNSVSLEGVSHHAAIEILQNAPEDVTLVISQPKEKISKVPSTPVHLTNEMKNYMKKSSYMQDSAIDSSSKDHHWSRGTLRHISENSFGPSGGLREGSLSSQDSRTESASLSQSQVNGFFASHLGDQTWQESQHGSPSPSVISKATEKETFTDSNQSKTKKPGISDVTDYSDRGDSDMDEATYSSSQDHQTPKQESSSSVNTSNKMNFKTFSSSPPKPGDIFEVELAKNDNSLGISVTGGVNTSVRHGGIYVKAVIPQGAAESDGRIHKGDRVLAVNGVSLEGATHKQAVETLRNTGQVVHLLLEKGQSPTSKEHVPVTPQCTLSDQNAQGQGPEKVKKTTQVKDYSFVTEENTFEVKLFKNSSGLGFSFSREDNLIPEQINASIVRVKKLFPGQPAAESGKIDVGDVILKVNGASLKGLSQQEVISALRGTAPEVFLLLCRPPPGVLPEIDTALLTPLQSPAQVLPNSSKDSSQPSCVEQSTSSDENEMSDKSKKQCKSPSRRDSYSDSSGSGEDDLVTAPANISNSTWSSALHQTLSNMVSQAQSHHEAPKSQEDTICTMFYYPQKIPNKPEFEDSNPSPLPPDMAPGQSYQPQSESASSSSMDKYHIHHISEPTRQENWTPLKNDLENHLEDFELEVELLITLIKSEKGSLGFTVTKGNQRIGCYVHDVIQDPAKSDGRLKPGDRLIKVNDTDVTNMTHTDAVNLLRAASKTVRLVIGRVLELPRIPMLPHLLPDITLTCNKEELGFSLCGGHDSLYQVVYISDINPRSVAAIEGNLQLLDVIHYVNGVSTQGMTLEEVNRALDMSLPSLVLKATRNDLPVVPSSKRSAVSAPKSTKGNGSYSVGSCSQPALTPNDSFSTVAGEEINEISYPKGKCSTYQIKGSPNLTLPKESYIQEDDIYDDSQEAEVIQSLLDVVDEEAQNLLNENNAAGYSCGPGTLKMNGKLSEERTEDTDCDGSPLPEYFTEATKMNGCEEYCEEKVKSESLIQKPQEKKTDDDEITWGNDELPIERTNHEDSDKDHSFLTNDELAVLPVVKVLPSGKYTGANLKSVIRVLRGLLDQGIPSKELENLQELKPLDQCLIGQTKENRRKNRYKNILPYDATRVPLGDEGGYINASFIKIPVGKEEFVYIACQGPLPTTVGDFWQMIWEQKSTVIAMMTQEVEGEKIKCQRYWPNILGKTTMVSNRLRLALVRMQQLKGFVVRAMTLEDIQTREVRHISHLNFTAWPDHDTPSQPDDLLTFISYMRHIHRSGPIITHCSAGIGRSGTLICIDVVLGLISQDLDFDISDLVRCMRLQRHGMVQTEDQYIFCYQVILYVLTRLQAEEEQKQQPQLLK
# Excerpt: as §1, §2, §3, §4, §5
# [6] = target: T5, PDZ protein (GST-PDZ fusion) (Homo sapiens, UniProt Q12959); settings: PDZ DLG1, PDZ Domain 1, 2
# T5 construct: made in house; host or cells: E. coli (DH5alpha, BL21 or JM109)
# Excerpt: as §1, §2, §3, §4, §5
# [7] = target: T6, PDZ protein (GST-PDZ fusion) (Homo sapiens, UniProt O75970)
# T6 construct: made in house; host or cells: E. coli (DH5alpha, BL21 or JM109)
# T6 sequence (O75970 whole entry, the tested form may be a part): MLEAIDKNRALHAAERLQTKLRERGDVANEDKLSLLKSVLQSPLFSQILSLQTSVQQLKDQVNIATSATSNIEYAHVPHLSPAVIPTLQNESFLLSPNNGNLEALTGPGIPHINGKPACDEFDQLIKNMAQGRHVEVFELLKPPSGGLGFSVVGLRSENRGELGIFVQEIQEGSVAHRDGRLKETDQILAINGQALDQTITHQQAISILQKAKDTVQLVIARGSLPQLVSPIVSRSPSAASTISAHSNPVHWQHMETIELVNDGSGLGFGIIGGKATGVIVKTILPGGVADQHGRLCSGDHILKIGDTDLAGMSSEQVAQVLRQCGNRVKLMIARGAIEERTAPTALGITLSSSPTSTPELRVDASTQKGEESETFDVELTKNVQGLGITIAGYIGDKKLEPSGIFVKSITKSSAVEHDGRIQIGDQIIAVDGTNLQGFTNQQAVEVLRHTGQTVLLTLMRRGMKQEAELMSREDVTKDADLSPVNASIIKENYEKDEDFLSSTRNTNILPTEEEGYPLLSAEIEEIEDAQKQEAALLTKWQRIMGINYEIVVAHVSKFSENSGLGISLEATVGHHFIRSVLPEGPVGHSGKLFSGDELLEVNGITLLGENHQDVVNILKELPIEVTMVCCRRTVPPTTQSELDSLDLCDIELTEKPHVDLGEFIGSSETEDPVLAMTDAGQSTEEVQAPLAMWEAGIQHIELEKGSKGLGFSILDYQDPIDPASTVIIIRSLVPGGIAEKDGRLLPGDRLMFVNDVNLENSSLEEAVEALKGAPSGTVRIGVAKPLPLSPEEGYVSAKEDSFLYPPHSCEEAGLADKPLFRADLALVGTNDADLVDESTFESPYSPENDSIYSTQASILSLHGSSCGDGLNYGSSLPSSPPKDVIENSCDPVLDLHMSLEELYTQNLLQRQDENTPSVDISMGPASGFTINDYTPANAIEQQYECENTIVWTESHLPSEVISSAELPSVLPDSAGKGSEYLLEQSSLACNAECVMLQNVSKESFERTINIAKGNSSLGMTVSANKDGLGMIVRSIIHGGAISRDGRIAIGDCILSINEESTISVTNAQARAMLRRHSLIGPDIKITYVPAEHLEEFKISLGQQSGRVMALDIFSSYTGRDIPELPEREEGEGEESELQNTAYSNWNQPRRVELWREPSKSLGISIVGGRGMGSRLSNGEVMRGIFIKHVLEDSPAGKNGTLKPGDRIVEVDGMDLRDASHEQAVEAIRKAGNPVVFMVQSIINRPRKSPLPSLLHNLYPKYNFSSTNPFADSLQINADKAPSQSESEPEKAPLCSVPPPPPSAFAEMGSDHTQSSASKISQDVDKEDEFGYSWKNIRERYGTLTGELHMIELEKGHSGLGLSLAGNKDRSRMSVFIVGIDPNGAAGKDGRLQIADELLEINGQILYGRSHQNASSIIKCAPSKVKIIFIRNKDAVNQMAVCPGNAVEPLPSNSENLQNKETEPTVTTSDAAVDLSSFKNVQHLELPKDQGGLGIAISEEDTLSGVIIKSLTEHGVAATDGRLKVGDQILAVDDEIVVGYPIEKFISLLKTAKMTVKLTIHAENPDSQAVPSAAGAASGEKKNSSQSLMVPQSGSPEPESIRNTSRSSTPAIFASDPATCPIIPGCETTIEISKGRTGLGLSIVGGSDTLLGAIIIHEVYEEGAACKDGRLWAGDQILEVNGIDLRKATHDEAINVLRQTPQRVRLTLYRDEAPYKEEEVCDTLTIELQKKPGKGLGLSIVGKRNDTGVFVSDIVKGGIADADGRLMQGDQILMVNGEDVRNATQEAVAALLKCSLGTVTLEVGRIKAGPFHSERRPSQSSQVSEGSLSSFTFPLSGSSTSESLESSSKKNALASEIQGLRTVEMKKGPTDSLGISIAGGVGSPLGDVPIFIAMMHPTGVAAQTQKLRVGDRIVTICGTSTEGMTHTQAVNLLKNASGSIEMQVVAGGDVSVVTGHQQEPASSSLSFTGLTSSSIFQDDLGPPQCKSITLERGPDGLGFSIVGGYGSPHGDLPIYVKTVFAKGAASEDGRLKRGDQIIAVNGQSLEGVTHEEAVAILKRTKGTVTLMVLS
# Excerpt: as §1, §2, §3, §4, §5
# [8] = target: T7, PDZ protein (GST-PDZ fusion) (Homo sapiens, UniProt O15018); settings: PDZ AIPC, PDZ Domain 1
# T7 construct: made in house; host or cells: E. coli (DH5alpha, BL21 or JM109)
# Excerpt: as §1, §2, §3, §4, §5
# [9] = target: T8, PDZ protein (GST-PDZ fusion) (Homo sapiens, UniProt Q8NI35); settings: PDZ INADL, PDZ Domain 8
# T8 construct: made in house; host or cells: E. coli (DH5alpha, BL21 or JM109)
# Excerpt: as §1, §2, §3, §4, §5
# [10] = PDZ KIAA807, PDZ Domain not given
substance,measurement,setting,value
DGGARTEDEVQSYPSKHDYV (Biotin-DGGARTEDEVQSYPSKHDYV) [claudin 18],Classification,"[1]; PDZ Mint 1, PDZ Domain 1, 2",1 (A450 nm 0-1)
KPQIAALKEETEEEVQDTRL (Biotin-KPQIAALKEETEEEVQDTRL),Classification,"[2]; PDZ SHANK, PDZ Domain 1",1 (A450 nm 0-1)
same,Classification,"[3]; PDZ KIAA0807(S), PDZ Domain 1",2 (A450 nm 1-2)
same,Classification,[3]; [10],1 (A450 nm 0-1)
PGQPPKVKSEFNSYSLTGYV (Biotin-PGQPPKVKSEFNSYSLTGYV) [claudin 2],Classification,"[2]; PDZ BAI-1, PDZ Domain 3",1 (A450 nm 0-1)
same,Classification,[3]; PDZ KIAA807,1 (A450 nm 0-1)
same,Classification,"[1]; PDZ Mint 1, PDZ Domain 1, 2",2 (A450 nm 1-2)
same,Classification,[4],1 (A450 nm 0-1)
PRLKRMQQFEDLEDEIPQFV (Biotin-PRLKRMQQFEDLEDEIPQFV) [RhoGAP 1 (PTPL1-associated)],Classification,[5],2 (A450 nm 1-2)
GGEDFKTTNPSKQFDKNAYV (Biotin-GGEDFKTTNPSKQFDKNAYV) [claudin 10],Classification,[6],1 (A450 nm 0-1)
same,Classification,[4],1 (A450 nm 0-1)
SPQPDSTDNDDYDDISAA (Biotin-SPQPDSTDNDDYDDISAA) [CD6],Classification,"[3]; PDZ KIAA0807(S), PDZ Domain 1",1 (A450 nm 0-1)
same,Classification,[3]; [10],1 (A450 nm 0-1)
IVFIHSFLSAKVTRLGLLA (Biotin-IVFIIHSFLSAKVTRLGLLA) [alpha-1-syntrophin],Classification,"[3]; PDZ KIAA0807(S), PDZ Domain 1",1 (A450 nm 0-1)
TALRIKKTLAKMVESQDVKI (Biotin-TALRIKKTLAKMVESQDVKI) [bone morphogenetic protein receptor],Classification,"[3]; PDZ KIAA0807(S), PDZ Domain 1",1 (A450 nm 0-1)
same,Classification,"[7]; PDZ MUPP-1, PDZ Domain 3",1 (A450 nm 0-1)
same,Classification,"[7]; PDZ MUPP-1, PDZ Domain 7",1 (A450 nm 0-1)
same,Classification,"[7]; PDZ MUPP-1, PDZ Domain 9",1 (A450 nm 0-1)
C5AR_HUMAN (Biotin-ESKSFTRSTVDTMAQKTQAV),Classification,[5],1 (A450 nm 0-1)
KAGYRAPRSYPKSNSSKEYV (Biotin-KAGYRAPRSYPKSNSSKEYV) [claudin 7],Classification,"[1]; PDZ Mint 1, PDZ Domain 1, 2",4 (A450 nm 3-4)
VISKATPALPTVSISSSAEV (Biotin-VISKATPALPTVSISSSAEV) [Clasp-1],Classification,"[3]; PDZ KIAA0807(S), PDZ Domain 1",1 (A450 nm 0-1)
same,Classification,[3]; [10],1 (A450 nm 0-1)
same,Classification,[8],1 (A450 nm 0-1)
same,Classification,"[1]; PDZ Mint 1, PDZ Domain 1, 2",1 (A450 nm 0-1)
PVYIVQEMPPQSPANIYYKV (Biotin-PVYIVQEMPPQSPANIYYKV) [ephrin B1],Classification,"[3]; PDZ KIAA0807(S), PDZ Domain 1",1 (A450 nm 0-1)
same,Classification,[3]; PDZ KIAA807 (domain not given),1 (A450 nm 0-1)
same,Classification,[5],2 (A450 nm 1-2)
same,Classification,"[7]; PDZ MUPP-1, PDZ Domain 3",1 (A450 nm 0-1)
same,Classification,"[7]; PDZ MUPP-1, PDZ Domain 7",1 (A450 nm 0-1)
same,Classification,"[7]; PDZ MUPP-1, PDZ Domain 9",1 (A450 nm 0-1)
SYPTPRPYPKPAPSSGKDYV (Biotin-SYPTPRPYPKPAPSSGKDYV) [claudin 1],Classification,[9],1 (A450 nm 0-1)
same,Classification,"[1]; PDZ Mint 1, PDZ Domain 2",1 (A450 nm 0-1)
LGYSIPSRSGASGLDKRDYV (Biotin-LGYSIPSRSGASGLDKRDYV) [claudin 9],Classification,"[1]; PDZ Mint 1, PDZ Domain 1, 2",1 (A450 nm 0-1)
ENLELPVNPSSVVSERISSV (Biotin-ENLELPVNPSSVVSERISSV) [serotonin receptor 5-HT-2C],Classification,[9],1 (A450 nm 0-1)
same,Classification,"[7]; PDZ MUPP-1, PDZ Domain 10",1 (A450 nm 0-1)
RDSFHRSSFRKAETQLSQGS (Biotin-RDSFHRSSFRKAETQLSQGS) [Clasp-5],Classification,"[2]; PDZ BAI-1, PDZ Domain 2",1 (A450 nm 0-1)
same,Classification,"[2]; PDZ SHANK, PDZ Domain 1",1 (A450 nm 0-1)
same,Classification,[3]; PDZ KIAA807,1 (A450 nm 0-1)
same,Classification,"[3]; PDZ KIAA0807(S), PDZ Domain 1",1 (A450 nm 0-1)
